Results taken from publication PMC5639329.
Read-outs that look alike come from different tables or passages of the source.

Assays:
[1] = AUC
[2] = AUC; remark: listed apart in the source

| Substance | % aggregates (20-1000 S area) [1] [%] | % monomer (1-20 S area) [1] [%] | % aggregates (20-1000 S area) [2] [%] | % monomer (1-20 S area) [2] [%] | % aggregates (20-1000 S area), Hsp70 co-expressed [1] [%] | % aggregates (20-1000 S area), average of all runs [1] [%] | % monomer (1-20 S area), Hsp70 co-expressed [1] [%] | % monomer (1-20 S area), average of all runs [1] [%] |
| --- | --- | --- | --- | --- | --- | --- | --- | --- |
| GFP-HttQ28 (huntingtin exon 1 fragment with 28 glutamines fused to GFP, expressed in C. elegans) | 70 | 30 |  |  |  |  |  |  |
| GFP-HttQ74 (huntingtin exon 1 fragment with 74 glutamines fused to GFP, expressed in C. elegans) | 97 | 3 |  |  |  |  |  |  |
| HttQ25-eGFP (huntingtin exon 1 fragment with 25 glutamines fused to eGFP, expressed in D. melanogaster) | 66 | 34 | 65 | 35 | 62 | 64.7 | 38 | 35.3 |
| HttQ46-eGFP (huntingtin exon 1 fragment with 46 glutamines fused to eGFP, expressed in D. melanogaster) | 76 | 24 | 79 | 21 | 78 | 83.2 | 22 | 16.8 |
| HttQ72-eGFP (huntingtin exon 1 fragment with 72 glutamines fused to eGFP, expressed in D. melanogaster) | 93 | 7 | 90 | 10 |  | 93.3 |  | 6.7 |
| HttQ97-eGFP (huntingtin exon 1 fragment with 97 glutamines fused to eGFP, expressed in D. melanogaster) | 82 | 18 | 86 | 14 | 91 | 85.6 | 9 | 14.7 |
